This is an account of results in the supplement of paper PMC12764529.

± gives the half width of the 95% confidence interval.

A short description of series [1]: folding stability dG unfold (combined trypsin and chymotrypsin); higher = more stable. Summed up: (§1)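 Unfolding free energy was derived, per protease or combined, against a sequence-predicted unfolded-state K50 and a shared folded-state K50, starting from K50 inferred by Bayesian fitting of sequencing counts. Digestion with trypsin and chymotrypsin was carried out on designed mini-proteins under 80 residues without cysteine in a PA-tagged cDNA display construct. Only designs with AlphaFold2 dimer inter-PAE above 15 were kept.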

Series [2] can be described thus: folding stability dG unfold from chymotrypsin proteolysis; higher = more stable. Summed up:
as §1

Series [3] is described as follows: folding stability dG unfold from trypsin proteolysis; higher = more stable. The gist of the method:
as §1

As for “SAGGSAGGSAGSKTIEVVIPVKPNELTPEQAENLIKPFFPDAKIEVTPEGNYLVVKVEVSSAGGSAGGSAGG [r11_7_TrMRF]”, the entries for the “folding stability dG unfold” value in series [1], in series [2] and in series [3] were 0.366 ± 0.18 kcal/mol, 0.334 ± 0.067 kcal/mol and 0.475 ± 0.11 kcal/mol, respectively.
The matching figures for “SAGGSAGGSAGSKTPSVLVIEVDANTSIEKILELYKKNYPVGEIRVFTRPDGRKIAVITGSAGGSAGGSAGG [r11_97_TrMRF]”: 2.31 ± 0.12 kcal/mol, 2.33 ± 0.069 kcal/mol and 2.22 ± 0.028 kcal/mol.
The matching figures for “SAGGSAGGSAGSMFMIMIEYDPPGYIKVSINRYKMGPDGDFEPVEPETHEIPIPPGQPFFSAGGSAGGSAGG [r11_440_TrROS]”: 2.3 ± 0.17 kcal/mol, 2.36 ± 0.13 kcal/mol and 1.91 ± 0.14 kcal/mol.
The matching figures for “SAGGSAGGSAGSMLTTTLPNGTPVTREFDIQDVEPKGDVIKVVITNPTGGEVPASTVIGPVNSAGGSAGGSA [r18_163_JUSTAS]”: 0.657 ± 0.081 kcal/mol, 0.757 ± 0.03 kcal/mol and 0.412 ± 0.051 kcal/mol.
On to “SAGGSAGGSAGSMSLPVTELVVESVDPLEGVLVVKVKGTLPDGSEVELTLEFKPDEPLELSAGGSAGGSAGG [r11_211_JUSTAS]”, for which the “folding stability dG unfold” value was 0.71 ± 0.11 kcal/mol in series [1], 0.375 ± 0.066 kcal/mol in series [2] and 0.992 ± 0.043 kcal/mol in series [3].
The matching figures for “SAGGSAGGSAGSMTVTVTGGGVSVEVYPETGLVRVRSPSGSETLVDIATGEVVRREPAAASAGGSAGGSAGG [r11_149_JUSTAS]”: 0.781 ± 0.066 kcal/mol, 0.872 ± 0.029 kcal/mol and 0.631 ± 0.047 kcal/mol.
With “SAGGSAGGSAGSNKVVTFVPRDPATGAPLGERPIPINSSSGSEIESIKKELPPEVVEIVESAGGSAGGSAGG [r17_339_JUSTAS]”, the “folding stability dG unfold” value in series [1] came to 1.01 ± 0.066 kcal/mol; in series [2], 1.15 ± 0.02 kcal/mol; in series [3] it was 0.605 ± 0.044 kcal/mol.
For “SAGGSAGGSAGSSILSVVEEDPETGLRVVLSPVSDVPVRIVTKRIPEKEEIKVLEVERLPSAGGSAGGSAGG [r11_1066_JUSTAS]”, the “folding stability dG unfold” value in series [1] was -0.746 ± 0.43 kcal/mol; in series [2], -0.758 ± 0.37 kcal/mol; in series [3], -0.603 ± 0.38 kcal/mol.
The matching figures for “SAGGSAGGSAGSSMTTVTVTITDTGSGKTTTTELDVPVSEVQAVIDELSPSPTLTITVVQSAGGSAGGSAGG [r17_50_JUSTAS]”: 1.64 ± 0.043 kcal/mol, 1.51 ± 0.028 kcal/mol and 1.84 ± 0.049 kcal/mol.
The matching figures for “SAGGSAGGSAGSSSISRETFDPETGLRYVYDPETDTITVIDLSNNKVVKTTPVGPEELERSAGGSAGGSAGG [r17_271_JUSTAS]”: 1.55 ± 0.07 kcal/mol, 1.95 ± 0.022 kcal/mol and 0.244 ± 0.068 kcal/mol.
Turning to “SAGGSAGGSAGSVIVTSTTSTLPNGTVVTNETVSDPSNPGVTTKKTSTTYPDGSVTTTESSAGGSAGGSAGG [r11_483_JUSTAS]”, the results for the “folding stability dG unfold” value in series [1], in series [2] and in series [3] were 1.36 ± 0.057 kcal/mol, 1.73 ± 0.047 kcal/mol and 0.213 ± 0.043 kcal/mol, respectively.
The matching figures for “SAGGSAGGSAGSVTITRDYPTPDGTRTTVTITFPSLERSPSVKYKLVSVSPDGNYVLSPESAGGSAGGSAGG [r11_733_JUSTAS]”: 1.91 ± 0.28 kcal/mol, 1.61 ± 0.17 kcal/mol and 2.11 ± 0.18 kcal/mol.
On the same counts, the results for “SAGGSAGGSAGSVTLPKNQVGVSVESYEVTLPDETGESVTRYKITLRFAETGLSAEFYAGSAGGSAGGSAGG [r17_266_TrMRF]” are 1.26 ± 0.22 kcal/mol, 1.34 ± 0.25 kcal/mol and 1.2 ± 0.047 kcal/mol.
The matching figures for “SAGGSAGGSAGSWELSYRFPGVQIEVTYSPEWGFITEIKVQPLPPPPPPSPEDAKEMKEKSAGGSAGGSAGG [r11_320_TrROS]”: 2.02 ± 0.12 kcal/mol, 2.56 ± 0.081 kcal/mol and 0.799 ± 0.083 kcal/mol.
“SAGGSAGGSAGSYPIEYIPAPPDRLWLIDPKNGKIYEIYLDPERGEYSFEEIKEFPLGLESAGGSAGGSAGG [r11_352_JUSTAS]”: the “folding stability dG unfold” value in series [1] stood at 1.57 ± 0.1 kcal/mol; in series [2], 1.66 ± 0.073 kcal/mol; in series [3], 1.34 ± 0.045 kcal/mol.
On the same counts, the results for “SAGGSAGGSAGTEIKIPPEFPDLPVKVYPIEVTLLGKGKPKKVILNVATTPDAIIAVDPESAGGSAGGSAGG [r11_21_TrMRF]” are -0.623 ± 0.2 kcal/mol, -0.61 ± 0.28 kcal/mol and -0.478 ± 0.1 kcal/mol.
The matching figures for “SAGGSAGGSAGTIVITQSPDGTWRAYYEDGTAEEFDSIDDLKKALEEHYPDAKTVIFKPASAGGSAGGSAGG [r11_806_TrMRF]”: 3.15 ± 0.17 kcal/mol, 2.99 ± 0.17 kcal/mol and 3.33 ± 0.15 kcal/mol.
On the same counts, the results for “SAGGSAGGSAGTLTLRVQLFDEDGRLVAEREVELEVELPPPPPVELEFDEETRELRRRRLSAGGSAGGSAGG [r17_348_TrROS_Hall]” are 0.965 ± 0.24 kcal/mol, 0.811 ± 0.22 kcal/mol and 1.12 ± 0.18 kcal/mol.
Consider “SAGGSAGGSAGVIPLPGGEEVEYFPEKGEATVRLPDGTVYKVEITKAPDGSLSVTVTPAGSAGGSAGGSAGG [r11_331_JUSTAS]”, for which the “folding stability dG unfold” value turned out to be 1.45 ± 0.052 kcal/mol in series [1], 1.1 ± 0.035 kcal/mol in series [2] and 1.79 ± 0.052 kcal/mol in series [3].
The matching figures for “SAGGSAGGSAGVIRVKLKDGPVREIPLEDVPPELLNTPELLAAIEALAREAGYEIESIEASAGGSAGGSAGG [r11_467_TrMRF]”: 2.03 ± 0.056 kcal/mol, 2.22 ± 0.029 kcal/mol and 1.7 ± 0.038 kcal/mol.
The matching figures for “SAGGSAGGSAGVITVTKDPKTGKYTVTIETPSGPATTVEVSSEEEAKELAKKLGYDIDALSAGGSAGGSAGG [r11_1049_JUSTAS]”: 3.82 ± 0.098 kcal/mol, 3.78 ± 0.087 kcal/mol and 3.89 ± 0.14 kcal/mol.
On the same counts, the results for “SAGGSAGGSAGVIVTPEGDRIVTYDPNTGSVTVTPLDAAGNPLTTTVVAPNGPVVTVTELSAGGSAGGSAGG [r17_385_JUSTAS]” are 1.22 ± 0.034 kcal/mol, 0.871 ± 0.018 kcal/mol and 1.66 ± 0.055 kcal/mol.
In the case of “SAGGSAGGSAGVPDNAKIRLAFEFDGYIVLIEATPGTGFIKNIDKVEVFPVIPNTGEVTGSAGGSAGGSAGG [r11_66_TrMRF]”, the entries for the “folding stability dG unfold” value in series [1], in series [2] and in series [3] were 1.79 ± 0.13 kcal/mol, 1.85 ± 0.1 kcal/mol and 1.53 ± 0.07 kcal/mol, respectively.
On the same counts, the results for “SAGGSAGGSAGVPEGEEYLFTVKVTLTFEPVTVKDENGEEHEIDEVTITVTVTVLVKAEDSAGGSAGGSAGG [r11_907_TrROS_Hall]” are 2.93 ± 0.24 kcal/mol, 3.24 ± 0.12 kcal/mol and 2.33 ± 0.35 kcal/mol.
On the same counts, the results for “SAGGSAGGSAGVPSLEEVLAELEANPNSDAVVELPDGTRVRIRVERLPGGELRVEREEVLSAGGSAGGSAGG [r11_300_JUSTAS]” are 1.6 ± 0.078 kcal/mol, 1.78 ± 0.049 kcal/mol and 1.21 ± 0.029 kcal/mol.
The matching figures for “SAGGSAGGSAGVRIDKDGWTIKWYNPDGEKRTFTVDSPEEAKDFLEENFPPGWRVEIEPPSAGGSAGGSAGG [r11_983_TrROS]”: 1.33 ± 0.13 kcal/mol, 1.38 ± 0.056 kcal/mol and 1.11 ± 0.046 kcal/mol.
